According to the RNAGym collection of RNA variant scans (doi:10.7554/elife.80360):

B1: CPEB3 Ribozyme (parent)
chain: GGGGGCCACAGCAGAAGCGUUCACGUCGCGGCCCCUGUCAGAUUCUGGUGAAUCUGCGAAUUCUGCUGU

Variants of: B1
Assay: self-cleavage, relative activity (ratio to wild type); higher = more cleavage; co-transcriptional

| Variant | self-cleavage |
| --- | --- |
| GGGGGCCACUGCAGAAGCGUUCACGUCGCGGCCCCUGUCAGAUUUUGGUGAAUCUGCGAAUUCUGCUGU [A10U C45U] | 0.958 |
| GGGGGCCACUGCAGAAGCGUUCACGUCGCGGCCCCUGUCAGAUUAUGGUGAAUCUGCGAAUUCUGCUGU [A10U C45A] | 0.998 |
| GGGGGCCACUGCAGAAGCGUUCACGUCGGGGCCCCUGUCAGAUUCUGGUGAAUCUGCGAAUUCUGCUGU [A10U C29G] | 0.431 |
| GGGGGCCACUGCAGAAGCGUUCACGUCGUGGCCCCUGUCAGAUUCUGGUGAAUCUGCGAAUUCUGCUGU [A10U C29U] | 0.361 |
| GGGGGCCACUGCAGAAGCGUUCACGUCGCGGCCCCUGUCAAAUUCUGGUGAAUCUGCGAAUUCUGCUGU [A10U G41A] | 0.844 |
| GGGGGCCACUGCAGAAGCGUUCACGUCGCGGCCCCUGUCAUAUUCUGGUGAAUCUGCGAAUUCUGCUGU [A10U G41U] | 0.86 |
| GGGGGCCACUGCAGAAGCGUUCACGUCGCGGCCCCUGUCAGAUUCUGGUGAAUUUGCGAAUUCUGCUGU [A10U C54U] | 1.01 |
| GGGGGCCACUGCAGAAGCGUUCACGUCGCGGUCCCUGUCAGAUUCUGGUGAAUCUGCGAAUUCUGCUGU [A10U C32U] | 1.02 |
| GGGGGCCACUGCAGAAGCGUUCACGUCGCGGACCCUGUCAGAUUCUGGUGAAUCUGCGAAUUCUGCUGU [A10U C32A] | 0.93 |
| GGGGGCCACUGCAGAAGCGUUCACGUCGCGGGCCCUGUCAGAUUCUGGUGAAUCUGCGAAUUCUGCUGU [A10U C32G] | 0.64 |
| GGGGGCCACUGCAGAAGCGUGCACGUCGCGGCCCCUGUCAGAUUCUGGUGAAUCUGCGAAUUCUGCUGU [A10U U21G] | 0.581 |
| GGGGGCCACUGCAGAAGCGUACACGUCGCGGCCCCUGUCAGAUUCUGGUGAAUCUGCGAAUUCUGCUGU [A10U U21A] | 1 |
| GGGGGCCACUGCAGAAGCGUCCACGUCGCGGCCCCUGUCAGAUUCUGGUGAAUCUGCGAAUUCUGCUGU [A10U U21C] | 0.912 |
| GGGGGCCACUGCAGAAUCGUUCACGUCGCGGCCCCUGUCAGAUUCUGGUGAAUCUGCGAAUUCUGCUGU [A10U G17U] | 0.512 |
| GGGGGCCACUGCAGAACCGUUCACGUCGCGGCCCCUGUCAGAUUCUGGUGAAUCUGCGAAUUCUGCUGU [A10U G17C] | 0.168 |
| GGGGGCCACUGCAGAAGCGUUCACGUCGCGGCCCCUGUCAGAUUCUGGUGAAUCUGGGAAUUCUGCUGU [A10U C57G] | 0.307 |
| GGGGGCCACUGCAGAAGCGUUCACGUCGCGGCCCCUGUCAGAUUCUGGUGAAUCUGUGAAUUCUGCUGU [A10U C57U] | 0.369 |
| GGGGGCCACUGCAGAAGCGUUCACGUCGCGGCCCCUGUCAGAUUCGGGUGAAUCUGCGAAUUCUGCUGU [A10U U46G] | 1.01 |
| GGGGGCCACUGCAGAAGCGUUCACGUCGCGGCCCCUGUCAGAUUCUGGUGAAUCUGCGAAUGCUGCUGU [A10U U62G] | 0.896 |
| GGGGGCCACUGCAGAAGCGUUCACGUCGCGGCCCCUGUCAGAUUCUGGUGAAUCUGCGAAUUCUCCUGU [A10U G65C] | 0.627 |

| Variant | self-cleavage |
| --- | --- |
| GGGGGCCACUGCAGAAGCGUUCACCUCGCGGCCCCUGUCAGAUUCUGGUGAAUCUGCGAAUUCUGCUGU [A10U G25C] | 0.155 |
| GGGGGCCACUGCAGAAGCGUUCACUUCGCGGCCCCUGUCAGAUUCUGGUGAAUCUGCGAAUUCUGCUGU [A10U G25U] | 0.162 |
| GGGGGCCACUGCAGAAGCGUUCACGUCGCGGCCCCUGUCAGAUUCUGGUGAAUCUGCGAAUUCUGUUGU [A10U C66U] | 1.01 |
| GGGGGCCACUGCAGAAGCGUUCAUGUCGCGGCCCCUGUCAGAUUCUGGUGAAUCUGCGAAUUCUGCUGU [A10U C24U] | 0.82 |
| GGGGGCCACUGCAGAAGCGUUCACGUCGCGGCCCCUGUCAGAUUCUGUUGAAUCUGCGAAUUCUGCUGU [A10U G48U] | 1 |
| GGGGGCCACUGCAGAAGCGUUCACGUCGCGGCCCCUGUCAGAUUCUGGUGAAUCUGCGAACUCUGCUGU [A10U U61C] | 0.781 |
| GGGGGCCACUGCAGAAGCGUUCACGUCGCGGCCCCUGUCAGAUUCUGGUGAAUCUGCGAAUUCUGCUCU [A10U G68C] | 1.05 |
| GGGGGCCACUGCAGAAGCGUUCACGUCGCGGCCCCUGUAAGAUUCUGGUGAAUCUGCGAAUUCUGCUGU [A10U C39A] | 0.84 |
| GGGGGCCACUGCAGAAGCGUUCACGUCGCGGCCCCUGUGAGAUUCUGGUGAAUCUGCGAAUUCUGCUGU [A10U C39G] | 0.913 |
| GGGGGCCACUGCAGAAGCGUUCACGUCGCGGCCCCUGUUAGAUUCUGGUGAAUCUGCGAAUUCUGCUGU [A10U C39U] | 0.984 |
| GGGGGCCACUGCAGAAGCGUUCACGUCGCGGCCCCUGUCAGAUGCUGGUGAAUCUGCGAAUUCUGCUGU [A10U U44G] | 0.928 |
| GGGGGCCACUGCAGAAGCGUUCACGUCGCGGCCCCUGUCAGAUCCUGGUGAAUCUGCGAAUUCUGCUGU [A10U U44C] | 0.949 |
| GGGGGCCACUGCAGAAGCGUUCACGUCGCGGCCCCUGUCAGAUUCUGGUGAAUCUGCGAAUUCUGCCGU [A10U U67C] | 1 |
| GGGGGCCACUGCAGAAGCGUUCACGUCGCGGCACCUGUCAGAUUCUGGUGAAUCUGCGAAUUCUGCUGU [A10U C33A] | 0.977 |
| GGGGGCCACUGCAGAAGCGUUCACGUCGCGGCUCCUGUCAGAUUCUGGUGAAUCUGCGAAUUCUGCUGU [A10U C33U] | 0.971 |
| GGGGGCCACUGCAGAAGCGUUCACGUCGCGGCGCCUGUCAGAUUCUGGUGAAUCUGCGAAUUCUGCUGU [A10U C33G] | 0.922 |
| GGGGGCCACUGCAGAAGCAUUCACGUCGCGGCCCCUGUCAGAUUCUGGUGAAUCUGCGAAUUCUGCUGU [A10U G19A] | 0.15 |
| GGGGGCCACUGCAGAAGCCUUCACGUCGCGGCCCCUGUCAGAUUCUGGUGAAUCUGCGAAUUCUGCUGU [A10U G19C] | 0.119 |
| GGGGGCCACUGCAGAAGCUUUCACGUCGCGGCCCCUGUCAGAUUCUGGUGAAUCUGCGAAUUCUGCUGU [A10U G19U] | 0.589 |
